# In article PMC12094245:
# Target: human recombinant NEK2 protein (Abcam, ab42599), RED-NHS labelled (human) (UniProt P51955)
# Assay: MST
binder,measurement,value
SPTLC1 protein tested in the MST assay (enzyme) MATATEQWVLVEMVQALYEAPAYHLILEGILILWIIRLLFSKTYKLQERSDLTVKEKEELIEEWQPEPLVPPVPKDHPALNYNIVSGPPSHKTVVNGKECINFASFNFLGLLDNPRVKAAALASLKKYGVGTCGPRGFYGTFDVHLDLEDRLAKFMKTEEAIIYSYGFATIASAIPAYSKRGDIVFVDRAACFAIQKGLQASRSDIKLFKHNDMADLERLLKEQEIEDQKNPRKARVTRRFIVVEGLYMNTGTICPLPELVKLKYKYKARIFLEESLSFGVLGEHGRGVTEHYGINIDDIDLISANMENALASIGGFCCGRSFVIDHQRLSGQGYCFSASLPPLLAAAAIEALNIMEENPGIFAVLKEKCGQIHKALQGISGLKVVGESLSPAFHLQLEESTGSREQDVRLLQEIVDQCMNRSIALTQARYLEKEEKCLPPPSIRVVVTVEQTEEELERAASTIKEVAQAVLL,Kd,350 nM
